Experimental findings from patent publication US11180767B2, “Protease deficient filamentous fungal cells and methods of use thereof” (GLYKOS FINLAND OY, priority 2012, dated 2021) are described below.

One test deals with MAB01 heavy chain. Briefly: Antibody degradation by Pichia-expressed T. reesei proteases (MAB01). The test is classed as biochemical. The method, then: The T. reesei aspartic proteases pep3 (tre121133) and pep7 (tre58669) expressed from Pichia were also tested in vitro, by measuring the degradation of the MAB01 antibody and IGF-1. Degradation of MAB01 and IGF-1 by pep3 and pep7 was analyzed by immunoblotting. The aspartic proteases were produced in Pichia supernatants. Pichia supernatants were diluted to 1× concentration, and then mixed with 50 mM sodium citrate buffer, pH 5.5. MAB01 was added to each reaction so that the final concentration would be 0.05 μg IGF-1 was added to each reaction so that the final concentration would be 0.30 μg μl. Ten microliters of each reaction mixture was then sampled and added to 3 μl of Laemmli sample buffer with β-mercaptoethanol. The samples were heated at 95° C. for 5 minutes before being loaded into a 4-15% PAGE gel (BioRad mini-protean TGX precast gel) along with an all blue precision plus prestained molecular weight marker (BioRad). The PAGE gel was run for 30 minutes at 200V. The proteins in the gel were then electrotransferred into a nitrocellulose filter at 100V for 1 hour. The protein containing nitrocellulose filter was then blocked with 5% milk powder in Tris buffered saline with 0.1% tween (TBST) for 1 hour shaking at room temperature. The blocked membranes were then probed with antibody. The MAB01 containing membranes were probed with an anti-IgG heavy chain antibody AP conjugate (Sigma #A3188) diluted 1:30,000 in TBST. The IGF-1 samples were analyzed using a primary anti-IGF-1 antibody (1:2000 in TBST) and anti-IgG AP conjugated secondary antibody (1:5000 in TBST). All antibody incubations were done for 1 hour at room temperature on a shaker. The membranes were then washed with 3 changes of TBST for 20 minutes each on the shaker. The membranes were developed with the BCIP/NBT alkaline phosphatase substrate (Promega #S3771) for up to 5 minutes.
Pichia supernatants containing Trichoderma reesei gap2 were also studied in vitro. The gap2 containing supernatant and MAB01 antibody were diluted into sodium citrate buffers adjusted to pH 4.0, 4.5, 5.0, and 5.5, and incubated for 20 hours at 37° C. Samples were taken at 0 minutes and after 20 hours. MAB01 heavy chain production was analyzed by immunoblotting using an anti-IgG heavy chain (Sigma #A3188) antibody AP conjugate.
(§1) The Trichoderma reesei subtilisin proteases slp5, slp6, and slp7 were overproduced in Pichia supernatants for investigation of their activity against the antibody rituximab and MAB01 heavy chains (FIG. 25). The rituximan mock supernatant was compared to supernatants containing slp5 and slp6 (FIG. 25 A). The MAB01 mock supernatant was compared to supernatants containing slp7 (FIG. 25B). Rituximab and MAB01 were added to the protease-containing Pichia supernatants and incubated overnight at 37° C. Samples were taken and analyzed by immunoblotting with an anti-heavy chain AP conjugated antibody.

The next test relates to rituximab heavy chain. Briefly: Antibody degradation by Pichia-expressed T. reesei proteases (rituximab). Conditions: overnight 37°C. The test is classed as biochemical. The protocol: as §1
[1] abbreviates: pH 5.5, 37°C, overnight/20 hours.

B1: slp6: T. reesei subtilisin protease overproduced in Pichia supernatant (protein, listed as Trichoderma reesei)
chain: MASLRRLALYLGALLPAVLAAPAVNYKLPEAVPNKFIVTLKDGASVDTDSHLTWVKDLHRRSLGKRSTAGVEKTYNIDSWNAYAGEFDEETVKQIKANPDVASVEPDYIMWLSDIVEDKRALTTQTGAPWGLGTVSHRTPGSTSYIYDTSAGSGTFAYVVDSGINIAHQQFGGRASLGYNAAGGDHVDTLGHGTHVSGTIGGSTYGVAKQASLISVKVFQGNSASTSVILDGYNWAVNDIVSRNRASKSAINMSLGGPASSTWATAINAAFNKGVLTIVAAGNGDALGNPQPVSSTSPANVPNAITVAALDINWRTASFTNYGAGVDVFAPGVNILSSWIGSNTATNTISGTSMATPHVVGLALYLQALEGLSTPTAVTNRIKALATTGRVTGSLNGSPNTLIFNGNSA
B1: the “degradation of MAB01 heavy chain vs mock supernatant” value in the test with MAB01 heavy chain (Pichia supernatant, overnight 37°C) was “light degradation”. Further, in the test on rituximab heavy chain, the “degradation of rituximab heavy chain vs mock supernatant” value was “heavy degradation activity”.

B2: pep3: T. reesei aspartic protease tre121133 expressed from Pichia (protein, listed as Trichoderma reesei)
chain: MEAILQAQAKFRLDRGLQKITAVRNKNYKRHGPKSYVYLLNRFGFEPTKPGPYFQQHRIHQRGLAHPDFKAAVGGRVTRQKVLAKKVKEDGTVDAGGSKTGEVDAEDQQNDSEYLCEVTIGTPGQKLMLDFDTGSSDLWVFSTELSKHLQENHAIFDPKKSSTFKPLKDQTWQISYGDGSSASGTCGSDTVTLGGLSIKNQTIELASKLAPQFAQGTGDGLLGLAWPQINTVQTDGRPTPANTPVANMIQQDDIPSDAQLFTAAFYSERDENAESFYTFGYIDQDLVSASGQEIAWTDVDNSQGFWMFPSTKTTINGKDISQEGNTAIADTGTTLALVSDEVCEALYKAIPGAKYDDNQQGYVFPINTDASSLPELKVSVGNTQFVIQPEDLAFAPADDSNWYGGVQSRGSNPFDILGDVFLKSVYAIFDQGNQRFGAVPKIQAKQNLQPPQ
Turning to B2, the MAB01 degrading activity entry in the test on MAB01 heavy chain (pH 4.5, 37°C, overnight) is on record as “higher”; with MAB01 heavy chain (setting [1]), “low MAB01 degrading activity”.

B3: gap2: T. reesei glutamic protease tre106661 in Pichia supernatant (protein, listed as Trichoderma reesei)
chain: MDAIRARSAARRSNRFQAGSSKNVNGTADVESTNWAGAAITTSGVTEVSGTFTVPRPSVPAGGSSREEYCGAAWVGIDGYSDADLIQTGVLWCVEDGEYLYEAWYEYLPAALVEYSGISVTAGSVVTVTATKTGTNSGVTTLTSGGKTVSHTFSRQNSPLPGTSAEWIVEDFTSGSSLVPFADFGSVTFTGATAVVNGATVTAGGDSPVIIDLEDSRGDILTSTTVSGSTVTVEYE
For the molecule B3, the “proteolytic activity against heavy chain MAB01” value with MAB01 heavy chain (pH 4.0, 37°C, 20 hours) is listed as “maximal proteolytic activity”. Further, in the test with MAB01 heavy chain (setting [1]), the MAB01 degrading activity entry was “low”.

B4: pep7: T. reesei aspartic protease tre58669 expressed from Pichia (protein, listed as Trichoderma reesei)
chain: MTLPVPLREHDLPFLKEKRKLPADDIPSGTYTLPIIHARRPKLASRAIEVQVENRSDVSYYAQLNIGTPPQTVYAQIDTGSFELWVNPNCSNVQSADQRFCRAIGFYDPSSSSTADVTSQSARLRYGIGSADVTYVHDTISLPGSGSGSKAMKAVQFGVADTSVDEFSGILGLGAGNGINTEYPNFVDELAAQGVTATKAFSLALGSKAEEEGVIIFGGVDTAKFHGELAHLPIVPADDSPDGVARYWVKMKSISLTPPPPSSSGSTDDNNNKPVAFPQTSMTVFLDSGSTLTLLPPALVRQIASALGSTQTDESGFFVVDCALASQDGTIDFEFDGVTIRVPYAEMIRQVSTLPPHCYLGMMGSTQFALLGDTFLRSAYAVFDLTSNVVHLAPYANCGTNVKSITSTSSLSNLVGTCNDPSKPSSSPSPSQTPSASPSSTATQKA
As for B4, the MAB01 degrading activity result with MAB01 heavy chain (pH 4.5, 37°C, overnight) is given as “minimal antibody degrading activity”.
